Source: patent publication US20230060388A1 (SHANGHAI HENLIUS BIOTECH, published 2023)
Numbering of substitutions follows the chain as printed.

B1: 15A5 VHH (VHH)
VHH: QVQLVESGGGLVQAGGSLRLSCAASERTFSSFAMGWFRQAPGKEREVVAAIDPSGRYIYYKDSVKGRFTMSRDNAKSTVYLQMNSLKPDDTARYYCAARIRGEGYYTRSSFYHYWGQGTQVTVSS
notes: VHH in E. coli supernatant
B2: 3G7 VHH (VHH)
VHH: QVQLVESGGGLVQAGDSLRLSCEASGRTLSTYTMGWFRRAPGKEREFVGLAWPSPSTYVVDSVKGRFTISRDNAKNTIYLQMNSLKPEDTAIYYCAADYKSLTQSWLNAALDYWGQGTQVTVSS
notes: VHH in E. coli supernatant
B3: 3F10 VHH (VHH)
VHH: QVQLVESGGGLVQAGGSLRLSCASSEHTFSNFPMGWFRQAPGKERNVVAAIDSSGRLTYYADSVKGRFTISKDNAKSTVYLQMNSLKSEDTARYYCAARTGGVGYYSRSSFYNYWGQGTLVTVSS
notes: VHH in E. coli supernatant
B4: 13H11 VHH (VHH)
VHH: QVQLVESGGGLVQAGGSLRLSCAASGLTFSMYAMGWFRQGPGKERESVAAISSDGRFTYYAASVKGRFTISKDNAKSAAFLQMNSLKPEDTAVYYCAARDSGSGYYSRAQWYDYWGQGTQVTVSS
notes: VHH in E. coli supernatant
B5: 1G1 VHH (VHH)
VHH: B4 VHH with G16D, A23V, L27P, T28S, M31S, A33P, Q120L
notes: VHH in E. coli supernatant
B6: 2B7 VHH (VHH)
VHH: B4 VHH with S21A, L27R, M31S, A33P
notes: VHH in E. coli supernatant
B7: 2B10 VHH (VHH)
VHH: QVKLEESGGGLVQTGDSLRLSCAASSRIFRRYAMGWFRQAPGKEREFVAAITWSGASTTYTDSVKGRFTISRDSAENTTYLQMTSLRPEDTAVYYCAADPWGSVIVGTAEYEYWGQGTLVTVSS
notes: VHH in E. coli supernatant
B8: 1C12 VHH (VHH)
VHH: QVQLVESGGGLVQTGDSLRLSCAASSRIFSRYGMGWFRQAPGKEREFVAAISWNGASTTYTDSVKGRFTISRDSAENTTYLQINSLRPEDTAVYYCAADPWGAVKLGTAEYEYWGQGTQVTVSS
notes: VHH in E. coli supernatant
B9: 3G6 VHH (VHH)
VHH: QVQLVESGGGLVQAGGSLSLSCAASGSIFGISVMGWYRQAPGEQRDLVATLTRAGLTTYGDSVKGRFSISRDSAKNTVYLQMNNLKPEDTAVYYCHANIMESAASTFGRYWGQGTQVTVSS
notes: VHH in E. coli supernatant
B10: 2A3 MI (hotspot modified 2A3) (VHH)
VHH: QVQLVESGGGVVQPGRSLRLSCAASGGSFSSYPMGWFRQAPGKERESVAAISSDIRFTYYADSVKGRFTISRDNSKNTLYLQMNSLRAEDTAVYYCAARDSGVGYYSRAQWYDYWGQGTLVTVSS
B11: 2A3 ML (hotspot modified 2A3) (VHH)
VHH: B10 VHH with I55L
B12: 2A3 ML_DE (hotspot modified 2A3) (VHH)
VHH: B10 VHH with I55L, D100E
B13: 4H9 VHH (VHH)
VHH: QVQLVESGGGAVQAGGSLRLSCTASGPIARSRSTGMGWFRQGPGKERESVAAISSDGRFTYYAASVKGRFTISKDNAKSAAFLQMNSLKPEDTAVYYCAARDSGSGYYSRAQWYDYWGQGTQVTVSS
notes: VHH in E. coli supernatant
B14: 1A8 VHH (VHH)
VHH: B10 VHH with G27P, D54R, I55G, V103S
B15: 6F12 VHH (VHH)
VHH: B10 VHH with G27P, S30T, I55G, T58K, R99E, V103S
B16: 7F6 VHH (VHH)
VHH: B10 VHH with G27P, S28M, I55P, V103S
B17: 15A5 bivalent VHH antibody (Fc fusion, not shown: small tags and cut ends)
chain: B1 VHH
B18: 13H11 bivalent VHH antibody (Fc fusion, not shown: small tags and cut ends)
chain: B4 VHH
B19: 3G6 bivalent VHH antibody (Fc fusion, not shown: small tags and cut ends)
chain: B9 VHH

These binders were tested against T1, recombinant human TIGIT extracellular domain (ECD) (human, UniProt Q495A1 22-138) (assay: blocking ELISA, competitor PVR).
T1 construct: also called h-TIGIT ECD; recombinant human TIGIT ECD
T1 sequence: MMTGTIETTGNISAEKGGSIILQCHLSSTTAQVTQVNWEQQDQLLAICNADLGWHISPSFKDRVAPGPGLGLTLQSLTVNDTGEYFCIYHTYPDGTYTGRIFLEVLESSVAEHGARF
Method: The effects of VHH antibody clones on blocking Poliovirus Receptor (PVR, a.k.a. CD155) binding to TIGIT were also determined using blocking ELISA assay.
With B1 the “inhibition of PVR binding to h-TIGIT” value was over 90%.
B2 was tested, and the “inhibition of PVR binding to h-TIGIT” value was over 90%.
For B3, the “inhibition of PVR binding to h-TIGIT” value was over 90%.
With B4 the “inhibition of PVR binding to h-TIGIT” value was over 90%.
B5 was tested, and the “inhibition of PVR binding to h-TIGIT” value was over 90%.
For B6, the “inhibition of PVR binding to h-TIGIT” value was over 90%.
In the case of B7, the “inhibition of PVR binding to h-TIGIT” value is reported as over 90%.
For B8, the “inhibition of PVR binding to h-TIGIT” value was over 90%.
For B9, the “inhibition of PVR binding to h-TIGIT” value was over 90%.

These binders were tested against T2, human TIGIT expressed on cells (stably transfected Jurkat cells) (human, UniProt Q495A1 22-244) (assay: whole cell binding, flow cytometry).
T2 construct: Also used here for TIGIT on primary T cells in the MLR; also called h-TIGIT; T cell immunoreceptor with Ig and ITIM domains
T2 sequence: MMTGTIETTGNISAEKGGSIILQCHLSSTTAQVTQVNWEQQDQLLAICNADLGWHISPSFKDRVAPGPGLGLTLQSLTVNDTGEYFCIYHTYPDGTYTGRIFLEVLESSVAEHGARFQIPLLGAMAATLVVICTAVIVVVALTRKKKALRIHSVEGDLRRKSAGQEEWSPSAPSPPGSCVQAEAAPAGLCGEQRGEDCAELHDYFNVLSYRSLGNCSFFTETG
B10: binds.
B11: binds.
B12: binds.

The binders below were run against T1, recombinant human TIGIT extracellular … (assay: ELISA, VHH supernatant on h-TIGIT ECD coated plates).
Method: The VHH antibody genes were amplified by PCR under protocols know in the art, purified by DNA agarose gel, constructed into a phagemid vector pADL-23c (Antibody Design Labs) and transformed to TG1 electrocompetent cells (from Lucigen). Transformed TG1 cells were cultured in Y2T medium. […] Phages in supernatants of culture were harvested by centrifugation, and panning of binders to human-TIGIT (h-TIGIT) or cynomolgus-TIGIT (cyno-TIGIT) antigen was performed using streptavidin-coupled Dynabeads coated with biotinylated h-TIGIT or cyno-TIGIT ECD. After 3 rounds of panning, binders of h-TIGIT or cyno-TIGIT were eluted, which were used to infect SS320 cells. Colonies of SS320 cells were picked and cultured in Y2T medium, and IPTG was added for secretion of VHH antibodies. Supernatants with VHH antibodies were screened by ELISA assays using h-TIGIT ECD coated plates. Positive h-TIGIT binders were picked for sequencing. 29 clones with different sequences were selected. Binding ability of VHH antibodies on cyno-TIGIT was also examined by ELISA. The top 21 binders and their CDRs and VHs are shown in the Sequence Table (SEQ ID NOS: 1-84).
B13: binds.

Each binder was assayed against T1, recombinant human TIGIT extracellular … (assay: ELISA on h-TIGIT ECD with VHH samples heated for 60 min at 25 to 70 °C).
Method: (§1) FIGS. 6A and 6B depict thermostability tested for representative clones. The VHH antibody samples were heated from 25 to 70° C. for 60 min. Binding of heated samples to human TIGIT was examined using ELISA or whole cell binding. […] Y axis represents OD450 obtained from the ELISA assay. X axis represents temperature for the treatment. […] Y axis represents percentage of binding to h-TIGIT. X axis represents temperature for the treatment.
(§2) The thermostability of 12 representative clones was tested by heat treatment at 25 to 70° C. for 60 min, then the binding of the treated samples to human TIGIT was examined using ELISA and whole cell binding flow cytometry assays, the results of which are shown in FIGS. 6A and 6B. […] Bivalent 2A3 antibody (2A3-Fc) was constructed using human IgG1 CH2 and CH3 domains. The antibody was expressed in ExpiCHO cells and purified by protein A column. Epitope of 2A3-Fc binding to human TIGIT was studied using Octet binding assay in comparison with anti-TIGIT reference antibodies Reference Ab 1 and References Ab 2 (a reference anti-human-TIGIT antibody having the same amino acid sequences of Tiragolumab, which was synthesized in-house based on the disclosed sequences in U.S. 2017/0088613 A1). As shown in FIGS. 7A-7C, 2A3 clone bound to a different epitope compared to Reference Ab 1 and Reference Ab 2.
B14: binds.
B15: binds.
B16: binds.

Each binder was assayed against T2, human TIGIT expressed on cells (stably …) (assay: flow cytometry on h-TIGIT transfected Jurkat cells, anti-human IgG Fc Alexa Fluor 488).
Description: FIGS. 1A-1C depict whole cell binding of representative VHH bivalent antibodies to human TIGIT determined by flowcytometry assays. […] Y axis represents Mean Fluorescence Intensity of AlexaFlour 488. X axis represents antibody concentrations in nanomolar. 2B7, 1G1, 1C12, 3G6, 2B10, 3G7, 3G10, 13H11, and 15A5 are VHH clones of anti-human TIGIT. FIG. 1C is a schematic of the structure of a TIGIT VHH bivalent antibody.
Binding affinities of the bivalent clones to human TIGIT transfected Jurkat cells were confirmed by flowcytometry assays. Jurkat cells stably expressing human TIGIT and NFAT reporter gene were established. Specifically, Jurkat cells were transfected with human TIGIT expression vector by electroporation, and cells stably expressing human TIGIT were selected by 1 μg/ml puromycin during cell culture. Representative antibody clones were incubated at different concentrations with h-TIGIT stably expressing Jurkat cells (0.2×10^6/ml) in 100 μl/well in 96-well plate in FACS buffer (PBS with 1.5% FBS) for 30 min. After washing, Alexaflour 488 conjugated anti-human IgG Fc secondary antibody (Alexa Fluor® 488 AffiniPure Goat Anti-Human IgG, Fcγ fragment specific, Jackson labs, 1:500 dilution) was added and incubated for 30 min. After washing, mean fluorescence intensity was measured using CytoFlex (Beckman Coulter) by gating live cell population. Binding affinity was calculated using GraphPad Prism.
For B17, the “EC50 (read off the curve)” value was about 0.06 nM.
With B18 the “EC50 (read off the curve)” value was about 0.2 nM.
B19 was tested, and the “EC50 (read off the curve)” value was about 0.8 nM.

The binders below were run against T2, human TIGIT expressed on cells (stably …) (assay: flow cytometry on h-TIGIT Jurkat cells (% binding) with VHH samples heated for 60 min at 25 to 70 °C).
Method: as §1, §2
B14: binds.
B15: binds.
B16: binds.
